The data set relates to MS2 coat protein. Kind of data set: apparent KD of MS2 coat protein; designed switch direction (-1 OFF switch, 1 ON switch): 1; higher = weaker reporter binding. The procedure, abridged:
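Three titration conditions were used: no input, 200 uM small-molecule ligand, and an oligonucleotide input. In each, SNAP-549-labelled MS2 coat protein was raised from 0.7 or 1.5 nM, doubling, to 3 µM over designed RNA switches transcribed on Illumina chips by stalled E. coli RNA polymerase. Curve fits of normalised cluster fluorescence gave values whose per-design median over clusters is the apparent KD.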

The mark [1] stands for this setting: Eterna round: R95, input ligand: FMN 200 uM.
The mark [2] stands for this setting: Eterna round: R95, input ligand: microRNA oligo, concentration not stated.
Setting [3] is: Eterna round: R95, input ligand: none.
Setting [4] is: input ligand: microRNA oligo, concentration not stated.

Take “GAGGGACAUGAGGAUCACCCAUGUGGAAAAUUUAAAGGAUAUUAGUGUGGGAAAGUAGGGUAAGAAGGUUGAUUGG [JR_SS1_Sub085] (puzzle: Same State 1)”: the “apparent KD of MS2 coat protein” value by setting is: under setting [1], 50.2 nM; under setting [2], 54.2 nM; under setting [3], 91.3 nM.

For the sequence “GAGUAGGACUUACAGGAUAUAUGGAGGUUGACAUGAGGAUCACCCAUGUCUGAGUUGAGAGGAGGAUAGAAGGGUAUGGGAGGCG [JR_SS2_Sub030] (puzzle: Same State 2)”, the “apparent KD of MS2 coat protein” value runs as follows: under setting [1], 23.4 nM; under setting [2], 16.5 nM; under setting [3], 22.4 nM.

Consider “GAGUAGUUAAAAGGAUAUUGAUUAUUGUAGGAUCAAGAAGGUUUUAACAUGAGGAUCACCCAUGUAGGACUAUAAAUGUGAAAA [Parity 93 - Jieux - Same State NG 1] (Eterna round: R96, puzzle: Same State NG 1)”, for which the “apparent KD of MS2 coat protein” value under setting [4] amounted to 12.5 nM.

For the sequence “GCACAUGAGGAUCACCCAUGUGCGCUUGAUUGUCCAAGCGCACAGGAUAUACCUCCAAAUGGGAGGUAGAAGGGUGAAAAGAAA [Ravema] (Eterna round: R96, puzzle: Same State NG 3)”, the “apparent KD of MS2 coat protein” value is, setting by setting: (input ligand: FMN 200 uM) 2310 nM; under setting [4], 393 nM; (input ligand: none) 347 nM.

Regarding “GCCAACUAAUGAGGAUAUGGCACCUUAUUGGUGCCAGAAGGCAUGUCAAAAGACAUGAGGAUCACCCAUGUAUUAUAGUUGGCA [Mat - Same State NG 1 - JL mod - D73] (Eterna round: R96, puzzle: Same State NG 1)”, the “apparent KD of MS2 coat protein” value stood at 25.5 nM (input ligand: FMN 200 uM), 62.5 nM under setting [4] and 304 nM (input ligand: none).

Turning to “GCCAUCGCAUGAGGAUAUGGCACCGUUUCGGUGCCAGAAGGCAUGUCGUAAGACAUGAGGAUCACCCAUGUAGUUAAGAUGGCA [JL Fiskers NG1ss - 33 mod 8] (Eterna round: R96, puzzle: Same State NG 1)”, the “apparent KD of MS2 coat protein” value reads like this: (input ligand: FMN 200 uM) 219 nM; under setting [4], 101 nM; (input ligand: none) 407 nM.

Consider “GCCCAUAGUAUAUGGGUACAAGCUUUUUAACAUGAGGAUCACCCAUGUACUCGUCUUAUGUGCAGUCCGUAGACUGC [JL-shm-2.17 Brourd mod] (puzzle: Sensor for hsa-mir-208a)”, for which the “apparent KD of MS2 coat protein” value under setting [1] came out at 86.4 nM, the “apparent KD of MS2 coat protein” value under setting [2] stood at 14 nM and the “apparent KD of MS2 coat protein” value under setting [3] is 82.3 nM.

With “GCCGACUAAUGAGGAUAUGGCACCUUAUUGGUGCCAGAAGGCAUGUCAAUUGACAUGAGGAUCACCCAUGUAUUAUAGUUGGCG [salish99_SSNG1_r04_602] (Eterna round: R96, puzzle: Same State NG 1)”, the “apparent KD of MS2 coat protein” value (input ligand: FMN 200 uM) was found to be 96.5 nM, the “apparent KD of MS2 coat protein” value under setting [4] was determined as 177 nM and the “apparent KD of MS2 coat protein” value (input ligand: none) was 449 nM.

With “GCCGCGUUUCGCGCCUACAUGAGGAUCACCCAUGUAUGUGGGCAGGAUAUCGUUUGCUUUGCAAACGAGAAGGGCUGUUGUGGC [salish99_SSNG3_R04_010] (Eterna round: R96, puzzle: Same State NG 3)”, the “apparent KD of MS2 coat protein” value (input ligand: FMN 200 uM) was 19.7 nM, the “apparent KD of MS2 coat protein” value under setting [4] worked out at 21.2 nM and the “apparent KD of MS2 coat protein” value (input ligand: none) amounted to 30 nM.

Regarding “GCGAAAGCAGGAGGAUAUGCAGAGGAUCACCCUGUAGAAGGCCACAGAGGAGGAUAUGCAGAGGAUCACCCUGUAGAAGGCCAC [pwkr ssNG DX.17] (Eterna round: R96, puzzle: Same State NG 1)”, the “apparent KD of MS2 coat protein” value reads like this: (input ligand: FMN 200 uM) 176 nM; under setting [4], 262 nM; (input ligand: none) 303 nM.

With “GCGAAGAGGUAAGGAUAUUCAUGGCAUAGACAUGAGGAUCACCCAUGUAGGAGACGAAUUAGAAGGAAGAAGGUACCAGGACGC [AK SSNG2-V2-18] (Eterna round: R96, puzzle: Same State NG 2)”, the “apparent KD of MS2 coat protein” value by setting is: (input ligand: FMN 200 uM) 137 nM; under setting [4], 111 nM; (input ligand: none) 187 nM.

For “GCGAGCGUACUUGCAGACAUGAGGAUCACCCAUGUAACUGGACAGGAUAUGGUACCGUUUCGGUACCAGAAGGGUUUACAUGUU [JL SSNG3 3.51] (Eterna round: R96, puzzle: Same State NG 3)”, the “apparent KD of MS2 coat protein” value (input ligand: FMN 200 uM) was determined as 20.2 nM, the “apparent KD of MS2 coat protein” value under setting [4] was 27.2 nM and the “apparent KD of MS2 coat protein” value (input ligand: none) stood at 47.7 nM.

For the sequence “GCGAGGAUAUGGAGAGGAUCACCCUCUAGAAGGCGCGAAGGCGAGGAUAUGGAGAGGAUCACCCUCUAGAAGGCGCACUUCUCU [pwkr ssNG3 DX 2xF5 +2xFMN.5] (Eterna round: R96, puzzle: Same State NG 3)”, the “apparent KD of MS2 coat protein” value runs as follows: (input ligand: FMN 200 uM) 222 nM; under setting [4], 162 nM; (input ligand: none) 235 nM.

Turning to “GCGAUAUGAUGUUACAUGAGGAUCACCCAUGUAGCGAUAGCUAAGGAUAUUUGAAAGGGAGGAGAAGAGAAGGUAGGAUCACGC [AK SSNG3-V2-22.2] (Eterna round: R96, puzzle: Same State NG 3)”, the “apparent KD of MS2 coat protein” value runs as follows: (input ligand: FMN 200 uM) 24.6 nM; under setting [4], 18.6 nM; (input ligand: none) 20.3 nM.

For “GCGGAACGGGCCGACAUGAGGAUCACCCAUGUGGCCUCAUGUCAGGAUAUCGGGAAGAAGAAAACCGAGAAGGGACGGUGACGC [AK SSNG3-V2-32] (Eterna round: R96, puzzle: Same State NG 3)”, the “apparent KD of MS2 coat protein” value (input ligand: FMN 200 uM) turned out to be 8.18 nM, the “apparent KD of MS2 coat protein” value under setting [4] was found to be 29.8 nM and the “apparent KD of MS2 coat protein” value (input ligand: none) came to 22.2 nM.

In the case of “GCGGAGAGGUAAGGAUAUCCAUGGAAGACACAUGAGGAUCACCCAUGUGGGAGGGAAACCAGGAGGGAGAAGGUACCGGGACGC [AK SSNG2-V2-21] (Eterna round: R96, puzzle: Same State NG 2)”, the “apparent KD of MS2 coat protein” value (input ligand: FMN 200 uM) worked out at 11.5 nM, the “apparent KD of MS2 coat protein” value under setting [4] was found to be 10.4 nM and the “apparent KD of MS2 coat protein” value (input ligand: none) was found to be 13.2 nM.

Take “GCUACCAUUGAUGCCUACAUGAGGAUCACCCAUGUAUGUAGGCAGGAUAUCGAUUGCAAAGCGAUCGAGAAGGGCUUAGGUAGC [Mat - Same State NG 3 - JL Mod - D93] (Eterna round: R96, puzzle: Same State NG 3)”: the “apparent KD of MS2 coat protein” value reads like this: (input ligand: FMN 200 uM) 56 nM; under setting [4], 103 nM; (input ligand: none) 149 nM.

In the case of “GCUAGAAAUAAAGCCAACAUGAGGAUCACCCAUGUAUGUUGGUAGGAUAUCGUAUGCAAAGCAUACGAGAAGGGCUAAACUAGC [Mat - Same State NG 3 - JL Mod - D18] (Eterna round: R96, puzzle: Same State NG 3)”, the “apparent KD of MS2 coat protein” value was determined as 91.6 nM (input ligand: FMN 200 uM), 77.5 nM under setting [4] and 93.7 nM (input ligand: none).

On to “GCUAGAAUUAAAGCCAACAUGAGGAUCACCCAUGUAUGUUGGUAGGAUAUCGUUUGCUUUGCAAACGAGAAGGGCCAAACUAGC [JL SSNG3 1.07] (Eterna round: R96, puzzle: Same State NG 3)”, for which the “apparent KD of MS2 coat protein” value is, setting by setting: (input ligand: FMN 200 uM) 64.7 nM; under setting [4], 142 nM; (input ligand: none) 111 nM.

Turning to “GCUAGGAAUAAAGCCAACAUGAGGAUCACCCAUGUAUGUUGGUAGGAUAUCGUAUGCAAAGCAUACGAGAAGGGCUAACCUAGC [Mat - Same State NG 3 - JL Mod - D69] (Eterna round: R96, puzzle: Same State NG 3)”, the “apparent KD of MS2 coat protein” value amounted to 71.4 nM (input ligand: FMN 200 uM), 49.5 nM under setting [4] and 64.8 nM (input ligand: none).

In the case of “GCUCAUAGUAUAUGGGUACAAGCUUUUUGACAUGAGGAUCACCCAUGUACUCGUCUUAUGUGCAGUCCGUAGACUGC [JL-shm-2.21 Brourd mod] (puzzle: Sensor for hsa-mir-208a)”, the “apparent KD of MS2 coat protein” value reads like this: under setting [1], 104 nM; under setting [2], 17.3 nM; under setting [3], 137 nM.

For the sequence “GCUCGAUGAGCGUCCUACAUGAGGAUCACCCAUGUUCGUGGGCAGGAUAUUUACAUGCAGAGUGUAGAGAAGGGCCCAUCGAGC [SameState NG3 #65] (Eterna round: R96, puzzle: Same State NG 3)”, the “apparent KD of MS2 coat protein” value worked out at 546 nM (input ligand: FMN 200 uM), 482 nM under setting [4] and 477 nM (input ligand: none).

Turning to “GCUCGCACGAUGACCCACAUGAGGAUCACCCAUGUGUGUGGGCAGGAUAUCUAGAUUAAGGAUGUAGAGAAGGGUUGAGCGAGC [SameState NG3 #24] (Eterna round: R96, puzzle: Same State NG 3)”, the “apparent KD of MS2 coat protein” value is, setting by setting: (input ligand: FMN 200 uM) 513 nM; under setting [4], 133 nM; (input ligand: none) 138 nM.

In the case of “GCUCGUAUGAUGACCGACAUGAGGAUCACCCAUGUGUGUCGGUAGGAUAUCUAUAUUAAGGAUAUAGAGAAGGGCCGAACGAGC [SameState NG3 #17] (Eterna round: R96, puzzle: Same State NG 3)”, the “apparent KD of MS2 coat protein” value by setting is: (input ligand: FMN 200 uM) 31.4 nM; under setting [4], 62.9 nM; (input ligand: none) 92.9 nM.

Consider “GCUUGCGGCGCAGGAUAUGGGUGCCUGUACAUGAGGAUCACCCAUGUUAAGGGACGGAUUACGAACCAGAAGGGCGUGGCGGGC [Ceerce] (Eterna round: R96, puzzle: Same State NG 2)”, for which the “apparent KD of MS2 coat protein” value is 47.8 nM (input ligand: FMN 200 uM), 108 nM under setting [4] and 430 nM (input ligand: none).

Turning to “GGAAUAUGAUGUUACAUGAGGAUCACCCAUGUAGUAAUAACUAAGGAUAUCUGAGGAGGAGGAGAAGAGAAGGUAGGAUCAUAA [AK SSNG3-V2-10] (Eterna round: R96, puzzle: Same State NG 3)”, the “apparent KD of MS2 coat protein” value is, setting by setting: (input ligand: FMN 200 uM) 23.8 nM; under setting [4], 22.2 nM; (input ligand: none) 33.2 nM.

Turning to “GGAAUCUCCAGAGAGGAUAUGCGGCGUUAAACAUGAGGAUCACCCAUGUCCUUCGAAUGGGUAACGCAGAAGGCUCUACGGUUCC [Shapeless] (puzzle: Same State 2)”, the “apparent KD of MS2 coat protein” value came to 115 nM under setting [1], 594 nM under setting [2] and 1220 nM under setting [3].

For the origin of these results see the supplement of paper PMC9170038.
